Source: the supplement of paper PMC9732359
± gives the uncertainty stated by the source.

Assay: protein stability index of a GFP-peptide fusion (yeast GPS) (PSI 1-4); higher = more stable; sorted into four equal gates, so the index is relative within each strain
How it was run: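 The protein stability index combines read frequencies across sorting gates, each weighted by its gate number and then summed. To obtain those frequencies, a pooled yeast library of GFP fusions to tiled 17-residue yeast protein peptides, on a plasmid also expressing Cherry, was grown to mid-log phase in leucine-free medium. The cells were sorted into four equal gates by GFP/Cherry ratio before plasmid amplification by PCR and Illumina sequencing.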

Sequence | protein stability index (doa10∆) | protein stability index (pdr5∆) | protein stability index (san1∆) | protein stability index (ubr1∆)
GEKTLSSLALVFALHKY [SMC4] | 2.57 ± 0.054 | 2.48 ± 0.066 | 1.9 ± 0.12 | 2.98 ± 0.051
KNRRRIHGELKTYKEGI [SMC1] | 3.23 ± 0.13 | 3.35 ± 0.062 | 3.17 ± 0.095 | 3.18 ± 0.054
SGEKIDFLLSDWNKRFS [BRR2] | 2.37 ± 0.061 | 2.72 ± 0.055 | 2.88 ± 0.067 | 2.79 ± 0.056
IEEQGWGGFPLDISVFL [TAF14] | 3.38 ± 0.063 | 3.4 ± 0.053 | 3.35 ± 0.048 | 3.33 ± 0.047
TFSGALGKQSSSLLSRL [FAS2] | 3.33 ± 0.097 | 3.23 ± 0.087 | 3.22 ± 0.065 | 2.93 ± 0.073
MSDSPLSKRQKRKSAQE [SMC4] | 3.46 ± 0.17 | 3.16 ± 0.11 | 3.04 ± 0.12 | 3.46 ± 0.27
FSFGAKANEKKESDESK [YJL041W/NSP1] | 2.58 ± 0.12 | 3.38 ± 0.089 | 3.52 ± 0.078 | 3.18 ± 0.18
HFVQEEPLAFYLEESFT [RGR1] | 2.32 ± 0.044 | 2.43 ± 0.039 | 2.67 ± 0.04 | 2.69 ± 0.031
PSADGADKKDDSESNSE [ITC1] | 2.83 ± 0.083 | 3.11 ± 0.065 | 3.34 ± 0.068 | 2.96 ± 0.068
KVVYIQRRSWRQYVGQL [DIS3] |  | 3.51 ± 0.17 | 3.02 ± 0.12 | 
LKRADYTAVDTAKLQMR [RPN14] |  | 3.33 ± 0.23 | 2.76 ± 0.1 | 
LFKYQGHIGAYLIVAGV [PUP1] | 1.66 ± 0.067 | 2.04 ± 0.06 | 1.39 ± 0.12 | 2.53 ± 0.055
ASYSKYLIDHIKVDGAV [RPL22B] | 2.92 ± 0.09 | 2.65 ± 0.11 | 2.62 ± 0.053 | 2.83 ± 0.063
RERIRKGLQIYQSSVQE [PRP8] |  |  | 1.81 ± 0.24 | 
DSYLILDTLPSEFDSRV [RPT5] | 2.83 ± 0.09 | 3.48 ± 0.12 | 3.23 ± 0.062 | 3.1 ± 0.036
VKAFLSIFEDAIKELNY [NUT1] | 2.04 ± 0.091 | 1.73 ± 0.087 | 2.55 ± 0.19 | 2.62 ± 0.19
KKAVVKGTNGKKALKVR [RPL25] | 2.84 ± 0.094 | 2.24 ± 0.078 | 1.91 ± 0.11 | 2.75 ± 0.063
LVDDENEPSQSLISTRN [BRN1] | 3.22 ± 0.058 | 3.4 ± 0.064 | 3.19 ± 0.047 | 3.15 ± 0.057
GENIDADNDGPRINNIS [SNF2] | 3.44 ± 0.09 | 3.53 ± 0.11 | 3.28 ± 0.065 | 3.02 ± 0.09
KRVHTLLTLIVREYEQP [ISW2] | 3.28 ± 0.23 | 2.55 ± 0.15 | 3.06 ± 0.15 | 3.46 ± 0.18
TCSSDQHIKVFKLDKDT [YGL100W/SEH1] | 3 ± 0.098 | 3.07 ± 0.087 | 3.46 ± 0.087 | 3.43 ± 0.097
SIGKNPFNKPNIETGEN [SWI3] | 3.04 ± 0.055 | 3.03 ± 0.048 | 2.87 ± 0.037 | 2.97 ± 0.044
YFSVTTARRNVSGDAAA [SWI3] | 1.9 ± 0.059 | 2.23 ± 0.063 | 2.33 ± 0.08 | 1.88 ± 0.047
LKHVLQLIFRQQTGLVD [SNU114] | 1.23 ± 0.075 | 1.58 ± 0.076 | 1.68 ± 0.12 | 1.2 ± 0.049
ESKQDGLSILFLTGQFA [YML103C/NUP188] | 2.79 ± 0.078 | 2.57 ± 0.062 | 2.88 ± 0.059 | 2.72 ± 0.063
DLLHPTAASEARKHKLK [RPS27A] | 2.29 ± 0.1 | 3.11 ± 0.068 | 2.53 ± 0.11 | 3.07 ± 0.072
TKRSIAIVFEEIKNWIS [YMR129W/POM152] | 1.41 ± 0.043 | 1.82 ± 0.045 | 1.44 ± 0.076 | 1.91 ± 0.052

Sequence | protein stability index (doa10∆) | protein stability index (pdr5∆) | protein stability index (san1∆) | protein stability index (ubr1∆)
SLMDTLITPAVRNTAPN [YCG1] | 1.6 ± 0.061 | 1.73 ± 0.082 | 1.26 ± 0.19 | 1.92 ± 0.058
AYHQKYVDEQSKNELKK [RPS16A] | 2.5 ± 0.093 | 2.02 ± 0.094 | 2.02 ± 0.13 | 2.94 ± 0.12
AKVNRPAKIVNFEKPKN [RPN5] | 2.93 ± 0.069 | 3.12 ± 0.069 | 2.89 ± 0.056 | 3.12 ± 0.054
VLPKIFNSVKSFDEWFN [SNF2] | 2.83 ± 0.18 | 2.43 ± 0.078 | 1.55 ± 0.2 | 1.77 ± 0.077
DRTMLAPMDFAIVVGWR [FAS1] | 2.49 ± 0.075 | 2.43 ± 0.062 | 2.68 ± 0.062 | 1.77 ± 0.041
SDFISKLEYPHTDVSSS [RPN3] | 2.56 ± 0.047 | 2.88 ± 0.054 | 2.82 ± 0.047 | 2.5 ± 0.045
RNIILEARFDVLITSYE [ISW2] | 2.85 ± 0.11 | 2.22 ± 0.076 | 2.41 ± 0.088 | 2.61 ± 0.074
AGKQLEDGRTLSDYNIQ [RPS31] | 2.81 ± 0.11 | 2.94 ± 0.16 | 3.6 ± 0.094 | 3.15 ± 0.1
LQEAIDFAQKEINGDDD [PRE10] | 2.96 ± 0.087 | 3 ± 0.079 | 3.23 ± 0.067 | 2.96 ± 0.076
EVTDKNYYYLFDKKSFF [PRP8] | 2.92 ± 0.056 | 2.44 ± 0.043 | 2.9 ± 0.041 | 2.84 ± 0.04
IEWAEHHRDSNFPDEDD [SKP1] | 3.1 ± 0.065 | 3.17 ± 0.059 | 3.08 ± 0.046 | 3.33 ± 0.057
GIGALFTQQELQKQMGI [RPC34] | 2.93 ± 0.11 | 3.39 ± 0.095 | 3.29 ± 0.085 | 2.69 ± 0.11
ATRHVLMRQGVLGIKVK [RPS3] | 2.07 ± 0.096 | 2.27 ± 0.073 | 1.93 ± 0.095 | 2.07 ± 0.056
DEKVTILVDSLTGNQLP [SWI1] | 2.76 ± 0.057 | 2.72 ± 0.064 | 2.9 ± 0.04 | 2.95 ± 0.046
LTTAREHHSSVKYASPN [FAS2] | 3.02 ± 0.065 | 3.11 ± 0.057 | 3.04 ± 0.041 | 3.06 ± 0.04
HPTVVDAIDNSDEITQD [IRR1] | 3.22 ± 0.093 | 3.17 ± 0.071 | 3.23 ± 0.068 | 3.15 ± 0.052
SPQQFLRAHTDDSRNPD [PRE2] | 2.93 ± 0.092 | 3.03 ± 0.069 | 2.7 ± 0.079 | 2.88 ± 0.079
TGVSVEAVDDVFQAKMM [RPN11] | 2.8 ± 0.14 | 3.06 ± 0.12 | 2.92 ± 0.082 | 2.87 ± 0.13
TNKGPLAQIWLASNMSN [MCD1] | 2.33 ± 0.096 | 1.26 ± 0.054 | 1.26 ± 0.2 | 1.17 ± 0.056
IAAERAARKAANKEKRA [RPL7B] | 3.27 ± 0.16 | 3.59 ± 0.21 | 3.28 ± 0.22 | 3.3 ± 0.17
SRPDILSKIKFPESIWK [YCG1] | 2.77 ± 0.049 | 2.04 ± 0.037 | 1.92 ± 0.058 | 2.06 ± 0.029
NQFLKIKKKRKELFEKT [SMC1] | 3.06 ± 0.15 | 3 ± 0.11 | 2.96 ± 0.12 | 3.29 ± 0.16
VKCKMSALQQIMYQQML [SNF2] | 2.8 ± 0.11 | 2.56 ± 0.14 | 2.72 ± 0.12 | 2.8 ± 0.074
KRYANHTQDIIGGMRVD [RET1] | 3.11 ± 0.069 | 3.41 ± 0.075 | 3.19 ± 0.049 | 3.37 ± 0.049
TSTDGKKRSKARKETYS [HTB1] | 3.07 ± 0.24 | 3.11 ± 0.14 |  | 
GVIALGQFVTLGCTLVT [RMP1] | 2.65 ± 0.24 | 1.36 ± 0.15 | 1.18 ± 0.15 | 1.5 ± 0.12
VSMYQNSSTSSTSNTPS [YDL088C/ASM4] | 2.59 ± 0.064 | 2.6 ± 0.064 | 2.58 ± 0.074 | 2.69 ± 0.046
